What was measured:
[1] = target: hemagglutinin (HA) of influenza B/Brisbane/60/08 (Victoria) (influenza B virus); assay: cell-based or functional assay
[2] = target: hemagglutinin (HA) of influenza B/Florida/04/06 (Yamagata) (influenza B virus); assay: cell-based or functional assay
[3] = target: hemagglutinin (HA) of influenza A/Wisconsin/67/05 (H3N2) (influenza A virus); assay: cell-based or functional assay
[4] = target: HA of H3N2 A/Wisconsin/67/2005 (influenza A virus); assay: AlphaLISA competition vs CR8020
[5] = target: HA of H3N2 A/Brisbane/10/2007 (influenza A virus); assay: AlphaLISA competition vs CR8020
[6] = target: HA of H3N2 A/Brisbane/10/2007 (influenza A virus); assay: AlphaLISA competition vs SD1038
[7] = target: HA of B/Brisbane/60/2008 (Victoria) (influenza B virus); assay: AlphaLISA competition vs SD1083
[8] = target: HA of B/Florida/04/2006 (Yamagata) (influenza B virus); assay: AlphaLISA competition vs SD1083
[9] = target: HA of B/Brisbane/60/2008 (Victoria) (influenza B virus); assay: AlphaLISA competition vs SD1086
[10] = target: HA of B/Florida/04/2006 (Yamagata) (influenza B virus); assay: AlphaLISA competition vs SD1086
[11] = target: HA of H1N1 A/New Caledonia/20/1999 (influenza A virus); assay: cell-based or functional assay
[12] = target: hemagglutinin (HA) of influenza A/New York/107/03 (PR8) (influenza A virus A/New York/107/03 (PR8)); assay: cell-based or functional assay
[13] = target: HA of H1N1 A/Brisbane/59/07 (influenza A virus); assay: cell-based or functional assay
[14] = target: HA of H7N3 A/NIBRG/60 (A/mallard/NL/12/00) (influenza A virus); assay: cell-based or functional assay
[15] = target: hemagglutinin (HA) of influenza A/chicken/Germany/n/49 (H10N7) (influenza A virus A/chicken/Germany/n/49 (H10N7)); assay: cell-based or functional assay
[16] = target: hemagglutinin (HA) of influenza virus H1N1 A/California/07/09 (influenza A virus); assay: cell-based or functional assay
[17] = target: hemagglutinin (HA) of influenza virus H3N2 A/Wisconsin/67/05 (influenza A virus); assay: cell-based or functional assay
[18] = target: hemagglutinin (HA) of influenza A/waterfowl/Hong Kong/MPA892/06 (H4) (influenza A virus A/waterfowl/Hong Kong/MPA892/06 (H4)); assay: cell-based or functional assay
[19] = target: hemagglutinin (HA) of influenza A/Brisbane/10/07 (H3N2) (influenza A virus A/Brisbane/10/07 (H3N2)); assay: cell-based or functional assay
[20] = target: HA of H3N2 A/Wisconsin/67/2005 (influenza A virus); assay: cell-based or functional assay
[21] = target: HA of B/Brisbane/60/2008 (Victoria) (influenza B virus); assay: cell-based or functional assay
[22] = target: HA of H5N1 A/Vietnam/1194/04 (influenza A virus); assay: cell-based or functional assay
[23] = target: HA of B/Florida/04/2006 (Yamagata) (influenza B virus); assay: cell-based or functional assay
[24] = target: hemagglutinin (HA) of influenza virus H5N1 A/Vietnam/1194/04 (influenza A virus); assay: cell-based or functional assay
[25] = target: hemagglutinin (HA) of influenza virus H1N1 A/Puerto Rico/8/34-MA (influenza A virus); assay: cell-based or functional assay
[26] = target: HA of H3N2 A/Brisbane/10/2007 (influenza A virus); assay: cell-based or functional assay
[27] = target: HA of B/Brisbane/60/2008 (Victoria) (influenza B virus); assay: AlphaLISA competition vs SD1087
[28] = target: HA of B/Florida/04/2006 (Yamagata) (influenza B virus); assay: AlphaLISA competition vs SD1087
[29] = target: HA of B/Brisbane/60/2008 (Victoria) (influenza B virus); assay: AlphaLISA competition vs SD1084
[30] = target: HA of B/Florida/04/2006 (Yamagata) (influenza B virus); assay: AlphaLISA competition vs SD1084
[31] = target: HA of H3N2 A/Wisconsin/67/2005 (influenza A virus); assay: AlphaLISA competition vs CR8057
[32] = target: HA of H3N2 A/Brisbane/10/2007 (influenza A virus); assay: AlphaLISA competition vs CR8057
[33] = target: HA of H3N2 A/Brisbane/10/2007 (influenza A virus); assay: AlphaLISA competition vs SD1036
[34] = target: HA of B/Brisbane/60/2008 (Victoria) (influenza B virus); assay: AlphaLISA competition vs SD1085
[35] = target: HA of B/Florida/04/2006 (Yamagata) (influenza B virus); assay: AlphaLISA competition vs SD1085
[36] = target: HA of H1N1 A/New Caledonia/20/1999 (influenza A virus); assay: AlphaLISA competition vs CR9114
[37] = target: HA of H3N2 A/Wisconsin/67/2005 (influenza A virus); assay: AlphaLISA competition vs CR9114
[38] = target: HA of B/Brisbane/60/2008 (Victoria) (influenza B virus); assay: AlphaLISA competition vs CR9114
[39] = target: HA of H5N1 A/Vietnam/1203/2004 (influenza A virus); assay: AlphaLISA competition vs CR9114
[40] = target: HA of H3N2 A/Brisbane/10/2007 (influenza A virus); assay: AlphaLISA competition vs CR9114
[41] = target: HA of H3N2 A/Brisbane/10/2007 (influenza A virus); assay: AlphaLISA competition vs 39.29
[42] = target: HA of H1N1 A/New Caledonia/20/1999 (influenza A virus); assay: BLI steady state
[43] = target: HA of H1N1 A/Brisbane/59/07 (influenza A virus); assay: BLI steady state
[44] = target: HA of H7N3 A/NIBRG/60 (A/mallard/NL/12/00) (influenza A virus); assay: BLI steady state
[45] = target: HA of H7N9 A/Hangzhou/1/2013 (influenza A virus); assay: BLI steady state
[46] = target: HA of H3N2 A/Wisconsin/67/2005 (influenza A virus); assay: BLI steady state
[47] = target: HA of H3N2 A/Brisbane/10/2007 (influenza A virus); assay: BLI steady state

Chain of SD1036 (VHH) (VHH): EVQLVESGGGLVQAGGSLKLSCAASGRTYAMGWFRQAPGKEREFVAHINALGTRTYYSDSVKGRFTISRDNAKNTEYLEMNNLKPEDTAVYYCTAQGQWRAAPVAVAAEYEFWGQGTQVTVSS

**Q.** What does the source list for CR9114 (antibody)?
**A.** ADCC induction (EC50 grade, FcγRIIIa reporter bioassay) [1]: < 0.1 µg/mL; ADCC induction (EC50 grade, FcγRIIIa reporter bioassay) [2]: < 0.1 µg/mL; ADCC induction (EC50 grade, FcγRIIIa reporter bioassay) [3]: < 0.1 µg/mL

**Q.** CR9114-LALA (antibody) was tested. Which ADCC induction (EC50 grade, FcγRIIIa reporter bioassay) [1] did it give?
**A.** > 0.5 µg/mL

**Q.** What about the ADCC induction (EC50 grade, FcγRIIIa reporter bioassay) [2] of the same substance?
**A.** > 0.5 µg/mL

**Q.** And the ADCC induction (EC50 grade, FcγRIIIa reporter bioassay) [3]?
**A.** > 0.5 µg/mL

**Q.** Which results are given for SD1036 (VHH)?
**A.** pIC50 [4]: 7.2; pIC50 [5]: 9.2; pIC50 [6]: 9.3; pIC50 [7]: < 7; pIC50 [8]: < 7; pIC50 [9]: < 7; pIC50 [10]: < 7; VNA titer [11]: > 1000 nM; VNA IC50 [12]: 11 nM; VNA titer [13]: > 1000 nM; VNA titer [14]: 10.9 nM; VNA IC50 [15]: 10 nM; neutralization titer [16]: < 1000 nM; neutralization titer [17]: < 1000 nM; VNA IC50 [18]: 44 nM; VNA IC50 [19]: 59 nM; VNA titer [20]: > 1000 nM; VNA titer [21]: > 1000 nM; VNA titer [22]: > 1000 nM; VNA titer [23]: > 1000 nM; neutralization titer [24]: < 1000 nM; neutralization titer [25]: < 1000 nM; VNA titer [26]: 86.7 nM; pIC50 [27]: < 7; pIC50 [28]: < 7; pIC50 [29]: < 7; pIC50 [30]: < 7; pIC50 [31]: < 7; pIC50 [32]: < 7; pIC50 [33]: 9.1; pIC50 [34]: < 7; pIC50 [35]: < 7; pIC50 [36]: < 7; pIC50 [37]: 7.8; pIC50 [38]: < 7; pIC50 [39]: < 7; pIC50 [40]: 9.4; pIC50 [41]: 9.2; Kd [42]: 230 nM; Kd [43]: 290 nM; Kd [44]: 2 nM; Kd [45]: 3 nM; Kd [46]: 122 nM; Kd [47]: 10 nM
